Series [1] has as its target protease-activated RNA polymerase (PA-RNAP) including the HCV protease substrate (UniProt P00806).
Series [2] addresses protease-activated RNA polymerase (PA-RNAP) including the TEV protease substrate (UniProt P00806).
The subject of series [3] is TEV protease wild-type substrate sequence ENLYFQSA
In series [4] the test system is target substrate sequence ENLYFESA

protease-activated RNA polymerase (PA-RNAP) including the HCV protease substrate, sequence (P00806 whole entry, looked up): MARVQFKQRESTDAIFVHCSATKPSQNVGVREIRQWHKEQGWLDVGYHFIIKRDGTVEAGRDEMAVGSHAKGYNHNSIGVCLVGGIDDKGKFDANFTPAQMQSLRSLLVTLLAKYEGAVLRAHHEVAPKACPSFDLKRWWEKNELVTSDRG
protease-activated RNA polymerase (PA-RNAP) including the TEV protease substrate, sequence (P00806 whole entry, looked up): as above

For the substance “hepatitis C virus (HCV) protease, constitutively active construct that includes the NS4a cofactor peptide”, in series [1], the “Western blot of PA-RNAP sensor activation (proteolysis)” value was “the PA-RNAP sensor is proteolyzed to a smaller band of anticipated molecular weight only in the presence of a cognate protease that can cleave the peptide sequence in each PA-RNAP linker”.

Turning to “tobacco etch virus (TEV) protease, expressed as MBP-TEV fusion protein”, the “Western blot of PA-RNAP sensor activation (proteolysis)” value in series [2] was “the PA-RNAP sensor is proteolyzed to a smaller band of anticipated molecular weight only in the presence of a cognate protease that can cleave the peptide sequence in each PA-RNAP linker”. Besides, the “cleavage of substrate sequence” value in series [3] was “Wild-type TEV protease cleaves the substrate sequence ENLYFQSA (SEQ ID NO: 24)”; in series [4] it was “does not cleave the target substrate sequence ENLYFESA (SEQ ID NO: 25)”.

For the origin of these results see patent US20210238569A1.
